Tests used:
[1] = target: soluble DR 2a (DRB5*0101) molecules isolated from L cells transfectant L416.3 (human) (UniProt P01903)
[2] = target: soluble DR4 (DRB1*0401) class II molecules purified from BSM or PREISS EBV-B cells (human) (UniProt P01903); test: peptide competition ELISA, soluble DR 4, biotinylated indicator UD4
[3] = target: soluble DR 1 (DRB1*0101) class II molecules purified from HOM-2 EBV-B cells (human) (UniProt P01903); test: peptide competition ELISA, soluble DR 1, biotinylated indicator GFK(A)7
[4] = target: soluble DR 8 (DRB1*0801) class II molecules purified from BM9 EBV-B cells (human) (UniProt P01903); test: peptide competition ELISA, soluble DR 8, biotinylated indicator GYR(A)6L
[5] = target: soluble DR 11 (DRB1*1101) class II molecules purified from SWEIG EBV-B cells (human) (UniProt P01903); test: peptide competition ELISA, soluble DR 11, biotinylated indicator TT831-843
[6] = target: soluble DR 7 (DRB1*0701) class II molecules purified from EKR EBV-B cells (human) (UniProt P01903); test: peptide competition ELISA, soluble DR 7, biotinylated indicator GFK(A)7, pH 5

Question: How did the IC50 [1] turn out when “HA307-319 peptide derived from influenza hemagglutinin” was run?
Answer: Its IC50 is 30 nM.

Question: And the IC50 [2]?
Answer: The IC50 was 1000 nM.

Question: What about the IC50 [3] of the same substance?
Answer: The IC50 was 100 nM.

Question: And the IC50 [4]?
Answer: Its IC50 is 5000 nM.

Question: What about the IC50 [5] of the same substance?
Answer: Its IC50 is 1000 nM.

Question: What about the IC50 [6] of the same substance?
Answer: Its IC50 is 100 nM.

Reference: patent publication US20050249750A1
